Test results from patent EP3150637A1 (F. Hoffmann-La Roche AG, dated 2017).

Target: T1, human VEGFA-121 (VEFG-A-121-His) (human, UniProt P15692-9 27-147)
T1 construct: Captured on an anti-His antibody surface; not shown: His tag
T1 sequence (looked up): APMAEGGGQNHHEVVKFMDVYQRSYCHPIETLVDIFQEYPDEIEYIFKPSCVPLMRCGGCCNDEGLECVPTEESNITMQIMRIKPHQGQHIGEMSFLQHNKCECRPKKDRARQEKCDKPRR
Test: SPR (Biacore T200), VEGF-A-121-His captured on anti-His, antibody in solution, Langmuir 1:1

koff: 6.11e-05 s⁻¹
B1: Ang2VEGF-0477 (bispecific antibody, human IgG1, kappa)
light 1: QPGLTQPPSVSVAPGQTARITCGGNNIGSKSVHWYQQKPGQAPVLVVYDDSDRPSGIPERFSGSNSGNTATLTISRVEAGDEADYYCQVWDSSSDHYVFGTGTKVTVLRTVAAPSVFIFPPSDEKLKSGTASVVCLLNNFYPREAKVQWKVDNALQSGNSQESVTEQDSKDSTYSLSSTLTLSKADYEKHKVYACEVTHQGLSSPVTKSFNRGEC
heavy 1: not shown
light 2: DIQMTQSPSSLSASVGDRVTITCSASQDISNYLNWYQQKPGKAPKVLIYFTSSLHSGVPSRFSGSGSGTDFTLTISSLQPEDFATYYCQQYSTVPWTFGQGTKVEIKSSASTKGPSVFPLAPSSKSTSGGTAALGCLVKDYFPEPVTVSWNSGALTSGVHTFPAVLQSSGLYSLSSVVTVPSSSLGTQTYICNVNHKPSNTKVDKKVEPKSC
heavy 2: not shown
notes: Bivalent bispecific CrossMAb CH1-CL
